Measurements from patent US20130224779A1, “METHOD FOR LARGE SCALE PREPARATION OF THE ACTIVE DOMAIN OF HUMAN PROTEIN TYROSINE PHOSPHATASE WITHOUT FUSION PROTEIN” (Korea Research Institute of Bioscience and Biotechnology, priority 2007, published 2013).

Columns and labels:
[1] = Protease (trypsin or chymotrypsin) digestion of PTP active domain, SDS-PAGE; format: physicochemical; conditions: 37° C., 30 minutes, SDS-PAGE (FIG. 8)
Method: Based on the result of Example <1-3-1>, 20 μg of PTP active domain having low solubility and stability was serially diluted from 1:1 to 1:1,000, followed by reaction with trypsin (Sigma, USA) or chymotrypsin (Sigma, USA) at 37° C. for 30 minutes. SDS-PAGE was performed by the same manner as described in Example 3 to confirm digestion.

[2] = Solubility and stability of expressed domain by SDS-PAGE of supernatant and precipitate; format: physicochemical; conditions: expressed in E. coli, SDS-PAGE (FIG. 9)
Method: After cloning the PTP active domain determined in Example <1-2>, it was expressed in E. coli and purified therefrom. After storing for a while, a proper amount of protein solution was ultra-centrifuged to separate supernatant and precipitate. SDS-PAGE was performed with the precipitate by the same manner as described in Example 3 to investigate whether the precipitate contained the target protein, leading to the examination of solubility.
The protein band cut by protease obtained in Example <1-3-2> was transferred to PVDF membrane. The band was cut and treated with a reagent recognizing and digesting N-terminal, followed by HPLC stepwise to arrange amino acids. Mass spectrometry was performed with the band to calculate the mass exactly and select stable domains. The re-designed domains were tested for activity and stability by the same manner as described in Example 4.

B1: T38: recombinant PTP active domain; unstable domain 636-979, stable domain 709-979, SEQ. ID. NO: 120 (protein)
chain: LAKEWQALCAYQAEPNTCATAQGEGNIKKNRHPDFLPYDHARIKLKVESSPSRSDYINASPIIEHDPRMPAYIATQGPLSHTIADFWQMVWESGCTVIVMLTPLVEDGVKQCDRYWPDEGASLYHVYEVNLVSEHIWCEDFLVRSFYLKNVQTQETRTLTQFHFLSWPAEGTPASTRPLLDFRRKVNKCYRGRSCPIIVHCSDGAGRTGTYILIDMVLNRMAKGVKEIDIAATLEHVRDQRPGLVRSKDQFEFALTAVAEEVNAILKALP
modifications: Amino acid sequence of PTP active domain T38
stability with increase of protease concentration [1]: maintained

B2: re-designed pk7: re-designed stable PTP active domain of pk7 (MKP2), amino acids 174-338, SEQ. ID. NO: 136 (protein)
chain: SATEPLDLGCSSCGTPLHDQGGPVEILPFLYLGSAYHAARRDMLDALGITALLNVSSDCPNHFEGHYQYKCIPVEDNHKADISSWFMEAIEYIDAVKDCRGRVLVHCQAGISRSATICLAYLMMKKRVRLEEAFEFVKQRRSIISPNFSFMGQLLQFESQVLATS
modifications: Amino acid sequence of PTP active domain pk7
solubility [2]: high | stability [2]: high

B3: full length pk7: full length pk7 (MKP2), unstable domain amino acids 1-394 (protein, UniProt Q13115 1-394, looked up)
chain: MVTMEELREMDCSVLKRLMNRDENGGGAGGSGSHGTLGLPSGGKCLLLDCRPFLAHSAGYILGSVNVRCNTIVRRRAKGSVSLEQILPAEEEVRARLRSGLYSAVIVYDERSPRAESLREDSTVSLVVQALRRNAERTDICLLKGGYERFSSEYPEFCSKTKALAAIPPPVPPSATEPLDLGCSSCGTPLHDQGGPVEILPFLYLGSAYHAARRDMLDALGITALLNVSSDCPNHFEGHYQYKCIPVEDNHKADISSWFMEAIEYIDAVKDCRGRVLVHCQAGISRSATICLAYLMMKKRVRLEEAFEFVKQRRSIISPNFSFMGQLLQFESQVLATSCAAEAASPSGPLRERGKTPATPTSQFVFSFPVSVGVHSAPSSLPYLHSPITTSPSC
modifications: full-length
solubility [2]: low | stability [2]: low
